Target: 重组人肿瘤坏死因子TNFα (Recombinant Human TNF-α, Peprotech Asia, Cat 300-01A) (human) (UniProt P01375)
Assay: cell-based or functional assay

UniProt P01375, sequence (P01375 77-233 limits assumed): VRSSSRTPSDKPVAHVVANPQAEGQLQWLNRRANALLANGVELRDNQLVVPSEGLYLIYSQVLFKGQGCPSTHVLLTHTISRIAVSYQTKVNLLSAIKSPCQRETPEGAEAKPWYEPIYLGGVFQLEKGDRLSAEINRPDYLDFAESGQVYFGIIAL

野生型全长的D2E7抗体 (full-length wild-type D2E7) (antibody)
小鼠存活率, C57BL/6 given 1μg rhTNFα and D-galactosamine, 5μg antibody: 0%

— patent CN101875694A
